Measured values published in publication PMC5428233, “Cross-beta nanostructures based on dinaphthylalanine Gd-conjugates loaded with doxorubicin” (Scientific Reports, 2017).
Where a SMILES comes first, the peptide text is derived from it. [ ]: non-standard residue; d: D form. The star is where a group is joined. DOTA = O=C(O)CN1CCN(CC(=O)O)CCN(CC(=O)*)CCN(CC(=O)O)CC1; 2Nal = N[C@@H](Cc1ccc2ccccc2c1)C(=O)O; PEG6 = NCCOCCOCCOCCOCCOCCOCCC(=O)O

How the values were obtained:
[1] = Transmission electron microscopy of self-assembled conjugates; type: physicochemical; conditions: 5.0 mg/mL solution dried on grid, phosphotungstic acid stain
Description: Self-assembled peptide conjugate at 5.0 mg/mL, as free base or as metal complex, was initially characterized using TEM. […] The presence of a diffraction pattern both in SAXS and in WAXS is fingerprint of a hierarchical organization of the molecules in fibers from the atomic to the nanoscale.
TEM images were acquired by LaMest (Pozzuoli, Italy) with a FEI TECNAI G12 Spirit-Twin microscope (LaB6 source) endowed of a bottom mounted FEI Eagle-4k CCD camera (Eindhoven, The Netherlands), working at 120 kV.

[2] = Self-aggregation by intrinsic naphthyl fluorescence (intensity decrease, excimer peak); type: physicochemical; conditions: water, room temperature, excitation 280 nm
Description: (§1) Self-organization of the peptide conjugates at the atomic level was further characterized also in solution with fluorescence, UV-Vis, ^1HNMR, CD and FTIR spectroscopies. […] From ispection of Fig. 1b, the typical emission spectrum of the 2-naphthyl group with three maxima at 325, 340 and 355 nm, respectively, can be detected.
(§2) The determination of CAC (critical aggregate concentration) values was determined as previously described[6] by the titration of the fluorescent probe ANS (8-anilino-1-naphthalene sulfonic acid ammonium salt)[28], [29] with the peptide conjugates[30].

[3] = water, temperature below 5 °C
[4] = Critical aggregation concentration (CAC) by ANS fluorescence titration; type: physicochemical; conditions: ANS 20 μM titrated with conjugate, emission at 470 nm, graphical break-point (Figure S3)
Description: as §1, §2

[5] = Congo Red spectroscopic (UV-Vis) assay for amyloid-like fibrils; type: physicochemical; conditions: 30 min at room temperature
Description: The high tendency of Gd-2Nal2 to self-aggregate in amyloid-like fibrillary nanostructures in solution was confirmed by Congo Red (CR) staining assay. CR is a well-known azoic dye, used as indicator of the occurrence of amyloid like fibrils. […] When incubated with fibrillary aggregates, its spectral profile changes and a shift of the CR band from 490 to 540 nm is expected. In our experiment, depicted in Fig. 3b, CR UV-Vis maximum undergoes a clear shift after incubation with Gd-2Nal2 at 2.5 mg/mL. Instead, any variation or a slight shift can be evidenced for CR incubated with 0.1 and 1.0 mg/mL, respectively.
Congo Red (CR) UV-Vis assay was carried out on aforementioned spectrophotometer as previously described. Briefly, 5, 50 and 125 μL of di-naphthylalanine stock solution (20 mg/mL) were added to a CR solution (12, 5 μM) prepared immediately before to use. The solutions containing peptide conjugate incubated with CR were left at room temperature for 30 min and then their UV-Vis spectra were recorded between 400 and 700 nm. The spectrum of CR alone at the same concentration was also recorded in the this spectral region.

[6] = Water proton relaxation measurements / NMRD profiles; type: physicochemical; conditions: 298 K
Description: The paramagnetic relaxivity (r1p) of Gd (III) complexes is given by:1 r1p∝1/T1MH=Kf(τR) where K is a constant related to the strength of the dipolar interaction between the protons and the electronic magnetic moment, and τR is the correlation time associated with the reorientation of the Gd-H magnetic vector. This means that slowly moving high molecular weight systems are endowed with higher relaxivity than rapidly reorienting low molecular weight ones. In the case of self assembling Gd-containing systems, the extent of aggregation may be evaluated through the measure of the water proton longitudinal relaxation rate of its aqueous solution. In Fig. 8 are reported the NMRD (Nuclear Magnetic Resonance Dispersion) profiles of Gd-2Nal2 acquired at 21.5 MHz (0.5 T) and 298 K as a function of the complex concentration. […] At concentrations higher than 10–15 mg/mL the relaxivity assumes an almost stable value which corresponds to the system in the completely aggregated form. By analyzing the profile of the relaxivity data as a function of the applied field strength (NMRD - Nuclear Magnetic Relaxation Dispersion) it is possible to obtain an accurate determination of the reorientational correlation time (τR)[16], that is strictly related to the molecular size of the investigated system. NMRD profiles were acquired below (black circles) and above (white ones) the CAC values determined by ANS titration and ^1HNMR. […] Data were analyzed using the Solomon-Bloembergen-Morgan model, [18], considering one water molecule in the inner coordination sphere (q = 1) and fixing the exchange lifetime (τM) to a reliable value ([…]) on the basis of those previously reported for mono-amido DOTA derivatives[19]–[22]. The quantitative analysis of the NMRD profile of the aggregated form was not satisfactory when the simple inner- outer-sphere model was used, so the Lipari-Szabo approach was used for the description of the rotational dynamics. This model allows one to take into account the presence ofa certain degree of internal rotation superimposed on the overall tumbling motion, [24]. These two types ofmotion, a relatively fast local rotation of the coordination cage about the linker to the peptide scaffold superimposed on the global reorientation of the system, are characterized by different correlation times: τR ^l and τR ^g, respectively. The degree of correlation between global and local rotations is given by the parameter S^2, which takes values between 0 (completely independent motions) and 1 (entirely correlated motions).
Measure of R1 (longitudinal water proton relaxation rates) of Gd-2Nal2 were carried out on a Stelar Spinmaster spectrometer (Pavia, Italy) operating at 0.5 T which corresponds to 21.5 MHz Proton Larmor Frequency. R1 (1/T1) values were measured at 298 K by mean of the standard inversion-recovery technique. For the measure of the proton 1/T1 NMRD (Nuclear Magnetic Resonance Dispersion) profiles, a fast field-cycling Stelar relaxometer, operating over a continuum of magnetic field strengths from 0.00024 to 0.47 T (corresponding to 0.01–20 MHz proton Larmor frequencies) was used. The temperature was set at 298 K. The relaxometer is computer controlled and the absolute uncertainty is 1/T1 ± 1%. Additional data points were obtained on a Stelar Spinmaster spectrometer coupled to an electromagnet tunable at different Larmor Frequencies between 21.5 and 70 MHz. Experimental temperature control was obtained with an air-flow heater (Stelar VTC-91) endowed of a copper constantan thermocouple (uncertainty 0.1 °C). A previously reported relaxometric method[39] was used for the determination of the concentrations of the solutions used for the relaxometric characterization. The conventional Solomon-Bloembergen-Morgan theory was used for fitting of experimental data.

[7] = Doxorubicin loading and leakage by fluorescence spectroscopy; type: physicochemical
Description: In order to prepare a potential theranostic agent, we assayed to incorporate cytotoxic doxorubicin (DOX) model drug in the Gd-2Nal2 paramagnetic nanostructures. DOX is an established anticancer agent clinically effective for the treatment of many cancertypes (breast and ovarian cancers). The incorporation and release of DOX into nanostructures was estimated by fluorescence spectroscopy (Figures S7 and S8). The addition of increasing amounts of the peptide conjugate to the DOX solution causes a progressive decrease of the fluorescence intensity of DOX (Figure S7a). […] By plotting the fluorescence intensity in the maximum at 590 nm as function of the Gd-2Nal2 concentration (Figure S7b) we estimated that gDrug/gPeptide is 0.028 (∼60 μg of DOX for ∼2.0 mg of peptide). […]
A DOX solution (1 · 10^−4 M) was placed in the cuvette and titrated with small amount of Gd-2Nal2 peptide conjugate at 50 mg/mL. The fluorescence of each sample was monitored on Jasco Model FP-750 spectroflurophotometer as above described. […] At the end of the titration the DOX filled Gd-2Nal2 aggregates were 10-fold diluted and the DOX fluorescence was monitored up to 72 h. […]
Figure S7: A) Fluorescence spectra of 1·10^-4 M DOX (58 μg/mL) solution alone and after the addition of growing amounts of Gd-2Nal2 peptide conjugate (from 0.25 to 10.0 mg/mL). […]

[8] = water

## NC(=O)[C@H](Cc1ccc2ccccc2c1)NC(=O)[C@H](Cc1ccc2ccccc2c1)NC(=O)CCOCCOCCOCCOCCOCCOCCNC(=O)CN1CCN(CC(=O)O)CCN(CC(=O)O)CCN(CC(=O)O)CC1 [Gd-2Nal2, Gd-DOTA-L6-(2Nal)2] ({DOTA-PEG6}-[2Nal]-[2Nal]-NH2)
[1]
  supramolecular aggregation / morphology in TEM images: long fibrillary nanostructures
[2]
  concentration at which self-aggregation begins (decrease of fluorescence intensity): ~75 µM
  concentration of appearance of the excimer peak (380-430 nm) / formation of stable aggregates: ~1000 µg/mL
[2]; 0.025-20.0 mg/mL range
  concentration at which self-aggregation begins (decrease of fluorescence intensity): ~100 µg/mL
[3]
  concentration at which fast hydrogel formation occurs: 20000 µg/mL
[4]
  critical aggregation concentration (CAC): ~0.86 mg/mL
[5]; conjugate at 1.0 mg/mL
  shift of Congo Red UV-Vis maximum (490 to 540 nm expected for fibrils): slight shift
[5]; conjugate at 2.5 mg/mL
  shift of Congo Red UV-Vis maximum (490 to 540 nm expected for fibrils): clear shift
[6]; 1 mg/mL
  aggregation state from NMRD profile and τR: monomeric state
[6]; 25.0 mg/mL (high concentration)
  aggregation state from NMRD profile and τR: formation of aggregates
[6]; 21.5 MHz (0.5 T), water
  concentration above which relaxivity assumes an almost stable value (completely aggregated form): 10000 to 15000 µg/mL
  concentration at which self-aggregation starts (enhancement in relaxivity): ca. 1.0 mg/mL
[6]; complex at 1 mg/mL, aqueous solution
  r1p (longitudinal proton relaxivity): 7.3 mM⁻¹ s⁻¹
[7]; DOX 1·10^−4 M titrated with Gd-2Nal2 (50 mg/mL stock), fluorescence at 590 nm, excitation 480 nm
  doxorubicin loading, gDrug/gPeptide: 0.028
[7]; DOX filled aggregates 10-fold diluted, fluorescence monitored, after 72 h
  DOX leakage (drug released) from the peptide aggregate: ~6%
[8]
  solubility: ≥ 50 mg/mL
